B1: LINE1-mini (parent)
chain: GGCAGAGCUCAACACAGCGUGGCAAAGUGGCUGUGGCUAGACUGCC

Variants of B1 are the subject of the series. Put plainly: self-cleavage, relative activity (ratio to wild type); higher = more cleavage; in vitro, sequencing; the parent is a self-cleaving ribozyme.
For C15G A25C, the self-cleavage was 0.02. As for C15G A25G, the self-cleavage was 0.06. Under C15G A25U stands 0.04; under C15A G27U, 0.09; under C15A G27A, 0.15.

Turning to C15A G27C, the self-cleavage came to 0.1. Then A14G C15A, with 0.08; and A14G C15U, with 0.11; and A14G C15G, with 0.08. In the case of C15A C42G, the self-cleavage came to 0.04. C15A C42A: the self-cleavage worked out at 0.06. Then C15A C42U, with 0.05; and C15G C23G, with 0.12.

C15G C23A: the self-cleavage came out at 0.06.

As for C15G C23U, the self-cleavage stood at 0.08. Then A14G A39U, with 0.37; and A14G A39G, with 0.1; and A14G A39C, with 0.39.

Consider A14G C37U, for which the self-cleavage is 0.19. Under A14G C37G stands 0.04; under A14G C37A, 0.07.

For the variant A14G A26C, the self-cleavage worked out at 0.67.

A14G A26G: the self-cleavage turned out to be 0.43. Under A14G A26U stands 0.59; under C15A A24U, 0.12; under C15A A24C, 0.04. Then C15A A24G, with 0.07. Then C15G C18A, with 0.09; and C15G C18U, with 0.04. Turning to C15G C18G, the self-cleavage was 0.05.

For the variant A14G U20A, the self-cleavage came to 0.23. Then A14G U20C, with 0.78. Under A14G U20G stands 0.15; under A14U G21A, 0.62.

On to A14U G21U, for which the self-cleavage amounted to 0.74. Then A14U G21C, with 0.57. Consider A14G U38C, for which the self-cleavage came to 0.15.

As for A14G U38A, the self-cleavage amounted to 0.52. Then A14G U38G, with 0.01; and C15G C37G, with 0.02. Then C15G C37U, with 0.04; and C15G C37A, with 0.06.

As for C15G C46A, the self-cleavage turned out to be 0.11. Then C15A G30A, with 0.06. As to C15A G30C, the self-cleavage stood at 0.05.

C15A G30U: the self-cleavage worked out at 0.07. Consider C15A A41G, for which the self-cleavage came out at 0.06. Then C15A A41C, with 0.15; and C15A A41U, with 0.05. Turning to C15A U43C, the self-cleavage is 0.04. Regarding C15A U43A, the self-cleavage turned out to be 0.07. As for C15A U43G, the self-cleavage turned out to be 0.07. Take A14U C46A: the self-cleavage is 0.4. Then A14U C46G, with 0.19; and A14U C46U, with 0.28; and C15A G44C, with 0.04.

For the variant C15A G44A, the self-cleavage is 0.08. Under C15A G44U stands 0.04; under A14G A25G, 0.32; under A14G A25U, 0.53.

For A14G A25C, the self-cleavage turned out to be 0.18. With A14U G35C, the self-cleavage is 0.11. Then A14U G35U, with 0.12. As to A14U G35A, the self-cleavage was 0.16. Under A14U G29U stands 0.5; under A14U G29A, 0.98; under A14U G29C, 0.41.

With A14G G40A, the self-cleavage was 0.1. Then A14G G40U, with 0.12; and A14G G40C, with 0.09. Turning to A14U A26C, the self-cleavage amounted to 0.6.

In the case of A14U A26G, the self-cleavage came out at 0.34.

Take A14U A26U: the self-cleavage was 0.53. Then C15A G22U, with 0.08; and C15A G22A, with 0.28; and C15A G22C, with 0.06. As to A14G G17A, the self-cleavage came out at 0.17. On to A14G G17C, for which the self-cleavage was 0.09. As to A14G G17U, the self-cleavage worked out at 0.09. In the case of C15A U28G, the self-cleavage came out at 0.06. Then C15A U28C, with 0.12; and C15A U28A, with 0.1. As for C15G A39G, the self-cleavage is 0.03. Then C15G A39U, with 0.04; and C15G A39C, with 0.02. Under C15A C18A stands 0.04; under C15A C18G, 0.09. Then C15A C18U, with 0.14; and C15G A24C, with 0.02. Turning to C15G A24U, the self-cleavage came out at 0.02. Then C15G A24G, with 0.03; and C15A U20G, with 0.08.

Turning to C15A U20A, the self-cleavage is 0.11. With C15A U20C, the self-cleavage was 0.04. For the variant A14U U38C, the self-cleavage was 0.17.

Take A14U U38A: the self-cleavage came out at 0.34. Under A14U U38G stands 0.06; under A14G G19C, 0.25. As for A14G G19U, the self-cleavage was 0.54. Under A14G G19A stands 1.03; under A14G C45G, 0.2; under A14G C45A, 0.38. For A14G C45U, the self-cleavage came to 0.63. Then A14C U34G, with 0.26; and A14C U34C, with 0.07; and A14U G40U, with 0.11. For the variant A14U G40A, the self-cleavage came out at 0.05.

As to A14U G40C, the self-cleavage was 0.08.

As for A14G C23A, the self-cleavage came out at 0.53. Then A14G C23U, with 0.85; and A14G C23G, with 0.45; and C15A G29C, with 0.18. Then C15A G29A, with 0.16; and C15A G29U, with 0.12. For A14U G30U, the self-cleavage came out at 0.19. As to A14U G30A, the self-cleavage came to 0.18. Under A14U G30C stands 0.14; under A14G C46U, 0.26. Under A14G C46G stands 0.14. In the case of A14G C46A, the self-cleavage came to 0.2. Under C15A G36U stands 0.06. As to C15A G36C, the self-cleavage is 0.04.

With C15A G36A, the self-cleavage amounted to 0.14. Regarding C15A G19A, the self-cleavage is 0.06.

As for C15A G19C, the self-cleavage is 0.14. With C15A G19U, the self-cleavage worked out at 0.09. Take C15A G40C: the self-cleavage was 0.07. Under C15A G40A stands 0.04. Under C15A G40U stands 0.06. Then A14U C37G, with 0.05; and A14U C37U, with 0.03. On to A14U C37A, for which the self-cleavage came to 0.08.

Consider A14G G27C, for which the self-cleavage is 0.61. Then A14G G27A, with 0.83.

For A14G G27U, the self-cleavage worked out at 0.42.

For A14U U28A, the self-cleavage came to 0.14. In the case of A14U U28C, the self-cleavage came to 0.35. A14U U28G: the self-cleavage was determined as 0.3.

With C15A C37A, the self-cleavage was 0.08. Under C15A C37U stands 0.1; under C15A C37G, 0.04; under A14U C42A, 0.21. In the case of A14U C42U, the self-cleavage came to 0.2. Under A14U C42G stands 0.1.

For the variant A14G C31A, the self-cleavage was 0.09. Then A14G C31U, with 0.04. Turning to A14G C31G, the self-cleavage was found to be 0.04. Then A14U A41C, with 0.06; and A14U A41U, with 0.25. Under A14U A41G stands 0.1; under C15G A26G, 0.03; under C15G A26U, 0.07. Under C15G A26C stands 0.04; under A14U G33U, 0.12. On to A14U G33A, for which the self-cleavage came to 0.08. For A14U G33C, the self-cleavage was 0.05. As to A14G G29U, the self-cleavage was 0.29. Under A14G G29A stands 0.78; under A14G G29C, 0.37. Under A14U C18A stands 0.11. For A14U C18U, the self-cleavage was found to be 0.08.

As for A14U C18G, the self-cleavage came out at 0.19. For C15A A39G, the self-cleavage is 0.08. Regarding C15A A39U, the self-cleavage came out at 0.06.

In the case of C15A A39C, the self-cleavage came to 0.06.

Turning to A14U A24C, the self-cleavage is 0.15. Under A14U A24U stands 0.42.

Source of the values: the RNAGym collection of RNA variant scans (doi:10.7554/elife.90254).
